Source: publication PMC6900781

Assays:
[1] = biological target: CAL1-GFP-LacI [Drosophila melanogaster]; test: LacO-tethering recruitment assay (HA immunofluorescence intensity at LacO); conditions: parent: 0.18; read off a plot
[2] = biological target: GFP-LacI-dCENP-C [Drosophila melanogaster]; test: as above; conditions: parent: 1.2; read off a plot

| response (normalized to GFP) [1] | response (normalized to GFP) [2] | Substance |
| --- | --- | --- |
| 0.07 |  | HA-dCENP-C mutant L1357E; L1406E [Drosophila melanogaster] / CAL1-GFP-LacI [Drosophila melanogaster] chain 1 L1357E, chain 1 L1406E |
|  | 0.15 | HA-dCENP-C mutant L1357E; L1406E [Drosophila melanogaster] / GFP-LacI-dCENP-C [Drosophila melanogaster] chain 1 L1357E, chain 1 L1406E |
